Measured values published in publication PMC9649962, “Early diagnosis of bladder cancer by photoacoustic imaging of tumor-targeted gold nanorods” (Photoacoustics, 2022).

Assays:
[1] = target: α5β1 integrin on murine bladder cancer MB49-Luc cells (mouse (endogenous in MB49-Luc)) (UniProt P11688)
[2] = target: α5β1 integrin on murine bladder cancer MB49-Luc cells (mouse (endogenous in MB49-Luc)) (UniProt P11688); remark: listed apart in the source
[3] = target: α5β1 integrin on human bladder cancer 5637 cells (human (endogenous in 5637)) (UniProt P08648)
Chain of UniProt P08648 (P08648 42-1049, chain 1 of 2): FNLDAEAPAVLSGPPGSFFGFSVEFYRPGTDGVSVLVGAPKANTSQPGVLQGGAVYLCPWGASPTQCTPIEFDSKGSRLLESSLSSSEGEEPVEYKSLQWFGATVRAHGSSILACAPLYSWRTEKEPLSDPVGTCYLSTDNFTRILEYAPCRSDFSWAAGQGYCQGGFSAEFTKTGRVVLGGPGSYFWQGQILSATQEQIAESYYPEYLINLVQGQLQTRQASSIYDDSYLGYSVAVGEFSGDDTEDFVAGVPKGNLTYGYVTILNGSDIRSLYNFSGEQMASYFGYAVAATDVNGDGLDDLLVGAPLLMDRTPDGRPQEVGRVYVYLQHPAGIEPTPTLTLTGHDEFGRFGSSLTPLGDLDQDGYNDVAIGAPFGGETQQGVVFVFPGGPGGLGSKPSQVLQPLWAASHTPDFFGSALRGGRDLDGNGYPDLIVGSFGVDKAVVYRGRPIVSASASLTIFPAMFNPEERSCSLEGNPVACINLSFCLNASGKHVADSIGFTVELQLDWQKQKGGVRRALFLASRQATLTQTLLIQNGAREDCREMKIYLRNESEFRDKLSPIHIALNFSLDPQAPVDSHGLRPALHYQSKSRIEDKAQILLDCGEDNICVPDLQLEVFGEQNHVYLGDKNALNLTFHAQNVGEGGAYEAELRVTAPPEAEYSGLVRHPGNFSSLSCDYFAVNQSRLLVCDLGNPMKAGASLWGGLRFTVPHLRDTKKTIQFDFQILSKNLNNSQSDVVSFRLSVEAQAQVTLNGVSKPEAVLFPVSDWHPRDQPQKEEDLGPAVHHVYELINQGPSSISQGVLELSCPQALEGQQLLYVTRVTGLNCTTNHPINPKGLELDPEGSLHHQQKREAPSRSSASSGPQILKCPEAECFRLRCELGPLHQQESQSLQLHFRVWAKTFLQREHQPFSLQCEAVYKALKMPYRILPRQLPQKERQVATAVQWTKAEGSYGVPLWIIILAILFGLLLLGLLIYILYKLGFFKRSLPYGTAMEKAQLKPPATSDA
Chain of UniProt P08648 (P05556 21-798, chain 2 of 2, further chain): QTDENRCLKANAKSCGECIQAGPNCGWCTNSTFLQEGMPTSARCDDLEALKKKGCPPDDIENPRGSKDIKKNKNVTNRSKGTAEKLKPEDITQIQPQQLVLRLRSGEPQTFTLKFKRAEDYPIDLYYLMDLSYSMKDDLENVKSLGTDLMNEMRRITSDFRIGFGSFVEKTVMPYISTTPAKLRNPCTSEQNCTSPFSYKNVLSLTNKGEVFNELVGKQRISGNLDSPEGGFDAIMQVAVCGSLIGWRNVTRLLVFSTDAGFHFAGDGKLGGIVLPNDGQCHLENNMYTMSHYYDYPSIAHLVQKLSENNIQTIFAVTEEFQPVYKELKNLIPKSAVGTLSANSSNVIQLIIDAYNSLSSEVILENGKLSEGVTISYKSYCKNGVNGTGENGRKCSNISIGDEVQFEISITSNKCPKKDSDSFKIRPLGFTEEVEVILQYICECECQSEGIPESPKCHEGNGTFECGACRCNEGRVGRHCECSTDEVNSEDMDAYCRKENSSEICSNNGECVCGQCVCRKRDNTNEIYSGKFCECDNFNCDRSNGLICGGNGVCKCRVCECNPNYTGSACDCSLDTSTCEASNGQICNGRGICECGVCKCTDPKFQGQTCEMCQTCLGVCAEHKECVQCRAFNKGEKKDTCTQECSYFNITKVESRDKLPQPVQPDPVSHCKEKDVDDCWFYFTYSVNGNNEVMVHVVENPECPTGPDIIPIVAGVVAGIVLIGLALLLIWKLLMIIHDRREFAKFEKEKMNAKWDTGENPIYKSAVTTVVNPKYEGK

[4] = target: Wild-type human integrin α5β1 (octyl β-D-glucopyranoside preparation) (human) (UniProt P08648); assay: ELISA; α5β1 (4 μg/ml) coated on PVC microtiter plates; Iso4-HRP or ARA-HRP 0–400 nM in 25 mM Tris-HCl pH 7.4, 150 mM sodium chloride, 1 mM magnesium chloride, 1 mM manganese chloride, 1% BSA, 2 h; no detergent; bound peroxidase by OPD, absorbance at 490 nm; effect of urine: Iso4-HRP 300 nM mixed with human urine (11.5–90%)
[5] = tested on: MB49-Luc orthotopic bladder tumor; assay: In vivo PAI of orthotopic MB49-Luc bladder tumor; design: species or system mouse; details: co-administration of excess free peptide (296 µg) with GNRs@Chit-Iso4 (1.5 nmol Au); two mice per condition
Protocol: All procedures and studies involving mice were approved by the Institutional Animal Care and Use Committee of San Raffaele Scientific Institute and performed according to the prescribed guidelines (IACUC, approval number 942). Female albino C57BL/6 J mice (9 weeks old, weighing about 20 g, Charles River Laboratories, Italy) were anesthetized with ketamine (80 mg/kg) and xylazine (15 mg/kg) and kept in dorsal position. Using a 24-gauge catheter, the bladder of each mouse was emptied and instilled with or without MB49-Luc cells (10^5 cells/100 μl in DPBS). Thirty minutes later the catheter was removed, and mice were allowed to recover and returned to their cage. Tumor growth was monitored by measuring the tumor volume through US imaging (see below) and in vivo bioluminescent quantification after administration of luciferin (15 mg/kg, intra peritoneum) using the non-invasive In Vivo Imaging System (IVIS, PerkinElmer, USA). […]

[6] = tested on: MB49-Luc cells; assay: Cell adhesion to GNR-coated plates, MB49-Luc; assay type: cell-based, murine; details: excess of free Iso4, plates coated with 250 µg/ml GNRs@Chit-Iso4
Protocol: (§1) The plates were washed and blocked with 2% BSA in DMEM or RPMI-1640 (200 μl/well, 1 h). MB49-Luc and 5637 cells were detached with DPBS-E, washed twice with DPBS, and suspended in DMEM or RPMI-1640 containing 0.1% BSA (binding buffer-3), and added to the coated-plates (1.5 ×10^5 cells/well, 100 μl). After 1–2 h of incubation at 37 °C, 5% CO2, the plates were washed with binding buffer-3. Adherent cells were fixed and stained with 0.5% crystal violet in 20% methanol. After washing with water, the dye was extracted from cells using a 10% acetic acid solution (140 μl/well) and the absorbance at 570 nm was measured using a microplate reader.

[7] = tested on: 5637 cells; assay: Cell adhesion to GNR-coated plates, 5637; assay type: cell-based, human; details: excess of free Iso4, plates coated with 250 µg/ml GNRs@Chit-Iso4
Protocol: as §1

Chain of UniProt P11688 (P11688 45-1053, chain 1 of 2): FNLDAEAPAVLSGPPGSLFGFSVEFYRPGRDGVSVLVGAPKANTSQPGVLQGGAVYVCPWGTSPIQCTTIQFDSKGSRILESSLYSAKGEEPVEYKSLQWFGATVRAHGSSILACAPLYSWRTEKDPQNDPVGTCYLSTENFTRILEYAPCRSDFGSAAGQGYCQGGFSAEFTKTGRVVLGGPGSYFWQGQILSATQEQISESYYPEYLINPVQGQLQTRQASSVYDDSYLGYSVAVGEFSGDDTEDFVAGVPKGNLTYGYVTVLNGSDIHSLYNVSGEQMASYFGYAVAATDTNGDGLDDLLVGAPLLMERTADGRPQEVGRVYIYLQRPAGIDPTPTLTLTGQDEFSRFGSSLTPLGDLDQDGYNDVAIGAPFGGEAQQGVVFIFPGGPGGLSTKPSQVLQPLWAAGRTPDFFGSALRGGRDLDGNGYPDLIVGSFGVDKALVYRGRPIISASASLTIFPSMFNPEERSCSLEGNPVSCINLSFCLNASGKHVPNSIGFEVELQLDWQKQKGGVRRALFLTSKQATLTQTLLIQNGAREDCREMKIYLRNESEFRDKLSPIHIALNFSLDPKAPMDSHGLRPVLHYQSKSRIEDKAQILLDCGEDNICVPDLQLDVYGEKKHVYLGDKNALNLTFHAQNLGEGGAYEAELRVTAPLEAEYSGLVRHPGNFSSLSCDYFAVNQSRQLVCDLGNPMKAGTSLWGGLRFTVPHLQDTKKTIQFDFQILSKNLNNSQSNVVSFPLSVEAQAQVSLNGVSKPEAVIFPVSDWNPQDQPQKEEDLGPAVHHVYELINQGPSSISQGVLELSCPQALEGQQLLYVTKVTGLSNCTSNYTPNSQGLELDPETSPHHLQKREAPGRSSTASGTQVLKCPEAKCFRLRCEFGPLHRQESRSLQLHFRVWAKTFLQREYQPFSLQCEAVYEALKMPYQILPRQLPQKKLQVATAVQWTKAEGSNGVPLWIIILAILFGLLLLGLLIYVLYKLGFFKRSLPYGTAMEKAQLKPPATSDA
Chain of UniProt P11688 (P09055 21-798, chain 2 of 2, further chain): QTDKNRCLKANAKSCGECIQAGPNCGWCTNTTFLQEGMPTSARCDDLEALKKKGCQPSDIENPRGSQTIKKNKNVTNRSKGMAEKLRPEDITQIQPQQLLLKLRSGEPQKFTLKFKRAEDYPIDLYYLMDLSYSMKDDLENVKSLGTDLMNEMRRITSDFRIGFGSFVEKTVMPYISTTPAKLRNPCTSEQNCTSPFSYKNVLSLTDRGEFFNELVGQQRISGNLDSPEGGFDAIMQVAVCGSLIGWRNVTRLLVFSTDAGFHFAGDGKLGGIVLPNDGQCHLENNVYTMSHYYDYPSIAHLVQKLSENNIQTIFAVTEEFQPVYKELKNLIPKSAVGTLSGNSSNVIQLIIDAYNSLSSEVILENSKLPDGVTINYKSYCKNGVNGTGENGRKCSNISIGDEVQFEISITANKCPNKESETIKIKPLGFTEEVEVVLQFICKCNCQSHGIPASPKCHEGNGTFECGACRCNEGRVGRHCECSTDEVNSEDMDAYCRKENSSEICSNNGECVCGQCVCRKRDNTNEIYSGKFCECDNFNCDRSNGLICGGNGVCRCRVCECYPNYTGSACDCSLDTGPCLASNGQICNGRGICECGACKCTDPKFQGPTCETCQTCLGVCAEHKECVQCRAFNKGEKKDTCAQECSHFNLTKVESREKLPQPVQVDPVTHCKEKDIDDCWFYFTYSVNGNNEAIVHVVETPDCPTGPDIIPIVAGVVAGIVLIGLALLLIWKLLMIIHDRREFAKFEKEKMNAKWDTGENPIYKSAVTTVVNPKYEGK

“GNRs@Chit-Iso4 (chitosan-coated gold nanorods functionalized with Iso4 through a maleimide-PEG12-NHS linker) (peptide)” gave an increase of MB49-Luc cell adhesion to GNRs@Chit-Iso4-coated plates in DMEM containing 25–75% human urine [1] of 20%, an EC50 of adhesion of MB49-Luc cells to plates coated with GNRs@Chit-Iso4 [2] of 0.73 µg/mL and an EC50 of adhesion of 5637 cells to plates coated with GNRs@Chit-Iso4 [3] of 1.3 µg/mL.

In the case of “Iso4-HRP (head-to-tail cyclized peptide c(CphgisoDGRG), Iso4, conjugated to maleimide-activated horseradish peroxidase)”, the recovery of binding in 90% human urine [4] is reported as 55%.

For c(CphgisoDGRG) (head to tail) [Iso4], the “effect of free peptide on tumor binding of GNR@Chit-Iso4” value [5] was “reduced by co-administration of an excess of free Iso4 peptide”, the “inhibition of cell adhesion by free peptide” value [6] was “completely inhibited cell adhesion” and the “inhibition of cell adhesion by free peptide” value [7] was “completely inhibited cell adhesion”.
